Assay results published in the supplement of paper PMC9170038.

Test system: MS2 coat protein
Assay: apparent KD of MS2 coat protein; higher = weaker reporter binding
Settings: Eterna round: R107
How it was run: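 The buffer was 100 mM Tris-HCl pH 7.5 with 80 mM KCl and 4 mM MgCl2, used without or with constant ligand. In it, RNA switches transcribed on-chip from Illumina sequencing clusters were titrated with SNAP-549-labelled MS2 coat protein in twofold steps from 0.7 or 1.5 nM to 3 µM. Apparent KD for each design is the median of its normalised cluster binding-curve fits.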

[1] = input ligand: theophylline 20 uM
[2] = input ligand: theophylline 2 mM
[3] = input ligand: tryptophan 2.4 mM

Row | Sequence | apparent KD of MS2 coat protein (input ligand: arginine 13.2 mM) [µM] | apparent KD of MS2 coat protein (input ligand: none) [µM] | apparent KD of MS2 coat protein [1] [µM] | apparent KD of MS2 coat protein [2] [µM] | apparent KD of MS2 coat protein [3] [µM]
1 | ACAUGAGGAUCACCCAUGUAUGAUGUUCCUCGAGGACCGGUACGGCCGCCACUCGAACGAGUGGCGCGCGAGUGCGCACUCGCGC [aWa] | 0.0211 | 0.0157 | 0.0387 | 0.0168 | 0.0141
2 | AAAUAGGUAGGAGAUACCAGAUACGUUAACAUGAGGAUCACCCAUGUGUAUGCACUUAGUGUCCCUUGGCAGCUCGAGGAUCUGG [#18 Same State - Theophylline B] | 0.0233 |  | 0.037 |  | 0.0274
3 | AUAUUUAAUGGAAGGAGCGCGGAUAAUAAAGUGGGUAAACAUGAGGAUCACCCAUGUAAACCGCAGGUAGGUCGCCGAAAUAUAU [AstrosEXyARgB#8] | 0.0566 | 0.039 | 0.0494 | 0.0576 | 0.047
4 | CAGCCACAUGAGGAUCACCCAUGUGAUGAUACCAGCUUCGUCUUAAGCCCUUGGCAGCAUAUCUCUUUGUUCUCAUACAUAGCAU [theeternabot_sameState_MS2_Theo_A_16] | 0.012 |  | 0.0173 |  | 0.0114
5 | UUGUAUAUGCGAAGGAGCGGGAAAUAUAUAUAUAUAAUCCUAACAUGAGGAUCACCCAUGUCCCAGGUAGGUCGCGCAUAUGUGG [12.G] | 0.0346 | 0.0588 | 0.0656 | 0.0683 | 0.0549
6 | UGCUACAUGAGGAUCACCCAUGUGGGUGAUACCAGCAUUCGUUAAUGCCCUUGGCAGCGCAGCCGAACCAUUCAUUCGGCAGAUC [Laxeor] | 0.0362 | 0.125 | 0.214 | 0.382 | 0.328
7 | AACAUGAGGAUCACCCAUGUGUCCUCGAAACGAGGACCGGUACGGCCGCCACUCGAAUAAGCUGUUGACGAAAAGUCAGCAGCAA [Mat - Exclusion - Trytophan A - D19] | 0.091 |  | 0.327 | 0.314 | 
8 | GGUUACUCUACGGCCGCCACUGAUUAUUUAUAAUCCUGUACAUAAACAUGAGGAUCACCCAUGUACAGGACCGGGUAGUGUAACC [Tryptophan B 11] | 0.0299 |  | 0.0377 | 0.0335 | 
9 | UAGCAUAGUACGGCCGCCACUCCUGGUUCCCGGCCGUGUGUAAGACAUGAGGAUCACCCAUGUAGGAGGACCGGGUAUCGCUUGC [theeternabot_sameState_MS2_Trp_B_22] | 0.0125 |  | 0.0202 | 0.0156 | 
10 | GGCACCAGGAGAAGGAGCGUGAAGACAUGAGGAUCACCCAUGUAGAGGCCCGGACCGGGUUCGCAGGUAGGUCGCUCCUGGUGCC [#1 Same State - Arginine B Attempt #15 (HarryS)] | 0.01 | 0.0156 | 0.0179 | 0.023 | 0.0169
11 | CUUCAACAUGAGGAUCACCCAUGUAGUGAUACCAGUCACUCAUACGACCCUUGGCAGCACAUUUUCUGUCGGCAUGUAGACGAUC [theeternabot_sameState_MS2_Theo_A_33] | 0.0736 |  | 0.172 |  | 0.173
12 | AGCGACAUGCAUGAUACCAGCUACAUGAGGAUCACCCAUGUACGUCAGUAAUGACUGUGUAGCCCUUGGCAGCAUAGAGCAUGUA [Exclusion - Theophylline B (Freestyle 14)] | 0.0177 |  | 0.028 |  | 0.0184
13 | AAACCAAGGGAUGGGUGCCUUGGUAGUGAUACCAGCCUGGAAACAGGCCCUUGGCAGCACAUGAGGAUCACCCAUGUGAAAUAAU [TheoAX 18#OpenEnded] | 0.0229 | 0.0277 | 0.0896 | 0.0692 | 0.0466
14 | CGGCCCUCACUUGAGGAUCACCCAAGUGAUACCAGCCUGGAAACAGGCCCUUGGCAGCACUAGGUCAUCAAAGAUGACCAAGCCG [TheoAX 28 #OpenEnded #AlternativeMS2] | 0.0148 | 0.0128 | 0.026 | 0.146 | 0.0134
15 | UAGACGGCCGGAAGGAGCGGUACAUGAGGAUCACCCAUGUAUCUCUGGGCAUCCGUAGAGUGCCAGGUAGGUCGCCGGUUGCGGG [XArg-B22] | 0.0123 | 0.011 | 0.0138 | 0.0115 | 0.0114
16 | GCCAUCGGCGAAAGCCGAUGGUAUACAGAAGGAGCGCACGAAAGUGCAGGUAGGUCGCUGAACAUGAGGAUCACCCAUGUAAUAA [#29 Same State - Arginine A] | 0.0196 | 0.0202 | 0.0249 | 0.0229 | 0.0194
17 | UGUAUGUGAUUUGAUACCAGACCAGCUGGUGGUCCAUGAGGAACACCCAUGGAGGUUUGGGUCCCUUGGCAGCAAAUCGCAUACU [SS Theo B #24 Ms20] | 0.152 |  | 0.13 | 0.0745 | 0.0897
18 | UUAUUUAUAAUUGAUACCAGUUUAAUGGCCGCAAAUCCUGACAUGAGGAUCACCCAUGUAAGCCCUUGGCAGCGGUUAUGGGUUU [XTheo B #25] | 0.0228 |  | 0.0264 |  | 0.0221
19 | UGACAUUGCUCAGAUACCAGACACGAGGAUCACCCGUGUGCCAACAAGUACAAAAUAAAUGUCCCUUGGCAGCUGAGCAAUGUCU [TheoBX 24 #MS2Left #AlternativeMS2 #Theo22] | 0.0119 | 0.0123 | 0.016 | 0.0261 | 0.0122
